According to patent US11155602B2, “Polypeptides targeting HIV fusion” (priority 2015, dated 2021):

B1: 106 (protein)
chain: MASTSGQAYPEYYFVDLEVVAATPTSLLISWSKPYYNAYSYRITYGETGGNSPVQEFTVLGHDTRAVISGLKPGVDYTITVYAMFIEYIDQEIWHAHPISINYRTEGSGSHHHHHH
modifications: Adnectin
B2: 101 (protein)
chain: MASTSGSASYLIPSDLEVVAATPTSLSIYWYPVASTIINFRITYVETGGNSPVQEFTVPGSKSTATISGLKPGVDYTITVYAVHYEQKYSEYWIGHPISINYRTEGSGSHHHHHH
modifications: Adnectin
B3: 107 (protein)
chain: MGVSDVPRDLEVVAATPTSLLISWDEHTDIYRYYRITYGETGGNSPVQEFTVPAMEHTATISGLKPGVDYTITVYAVTHVYPIMIHQYPISINYRTEIDKPSQHHHHHH
modifications: Adnectin
B4: 99 (protein)
chain: MGHHHHHHGGVSDVPRDLEVVAATPTSLLISWDAPAVTVHSYHIQYWPLGSYQRYQVFSVPGSKSTATISGLKPGVEYQIRVYAETGGADSDQSFGWIQIGYRTPES
modifications: Adnectin
B5: 110 (protein)
chain: MGHHHHHHGGVSDVPRDLEVVAATPTSLLISWDAPAVTVHSYHIQYWPLGSYQRYQVFSVPGSKSTATISGLKPGVEYQIRVYAETGRGESDQSLGWIQIGYRTEES
modifications: Adnectin
B6: 114 (protein)
chain: MGHHHHHHGGVSDVPRDLEVVAATPTSLLISWDAPAVTVHAYHIQYWPLGFYQGYQVFSVPGSKSTATISGLKPGVEYQIRVYAETGLGDAHQSLGWIQIGYRTPES
modifications: Adnectin
B7: 112 (protein)
chain: MGHHHHHHGGVSDVPRDLEVVAATPTSLLISWDAPAVTVHSYHIQYWPLGSYQRYQVFSVPGSKSTATISGLKPGVEYQIRVYAETGRGESDQSLGWIQIGYRTPES
modifications: Adnectin
B8: 113 (protein)
chain: MGHHHHHHGGVSDVPRDLEVVAATPTSLLISWDAPAVTVHSYHIQYWPLGSYQRYQVFSVPGSKSTATISGLKPGVEYQIRVYAETGRGESDQSFGWIQIGYRTPES
modifications: Adnectin
B9: 111 (protein)
chain: MGHHHHHHGGVSDVPRDLEVVAATPTSLLISWDAPAVTVHSYHIQYWPLGSYQRYQVFSVPGSKSTATISGLKPGVEYQIRVYAETGRGESDQSFGWIQIGYRTEES
modifications: Adnectin
B10: 95 (protein)
chain: MASTSGVSDVPRDLEVVAATPTSLLISWDAPAVTVHSYHIQYWPLGWYQRYQVFSVPGSKSTATISGLKPEVEYQIRVYAETGGGGSQQSFGWIQIGYRTEGSGSHHHHHH
modifications: Adnectin
B11: 108 (protein)
chain: MASTSGVSDVPRDLEVVAATPTSLLISWDAPAVTVLEYQIDYHPAAVWHALQRFTVPGSKSTATISGLKPGVHYKISVTATTHADNESIMWHPISIYYRTEGSGSHHHHHH
modifications: Adnectin
B12: 100 (protein)
chain: MASTSGSSSYLMPSDLEVVAATPTSLYIHWYPIASTIINFRITYGETGGNSPVQEFTVPGSQVHATISGLKPGVDYTITVYAVHYEHKYSELWMGHPISINYRTEGSGSHHHHHH
modifications: Adnectin
B13: 109 (protein)
chain: MGVSDVPRDLEVVAATPTSLLISWDYPTVTPRYYRITYGETGGNSPVQEFTVPEYIGTATISGLKPGVDYTITVYAVTNDTTIYSISRPISINYRTEIDKPSQHHHHHH
modifications: Adnectin
B14: 105 (protein)
chain: MASTSGEFYHTKYPYDLEVVAATPTSLEISWRSPTRDWQWFRITYGETGGNSPVQEFTVAGPYRNAIISGLKPGVDYTITVYADVYMPSEGGLVVDTYHPISINYRTEGSGSHHHHHH
modifications: Adnectin
B15: 104 (protein)
chain: MASTSGTHWFYSIPHDLEVVAATPTSLTIAWEPPHHTAMGYRITYGETGGNSPVQEFTVPGGYTTAYISGLKPGVDYTITVYAAYYEREYSEHWISHPISINYRTEGSGSHHHHHH
modifications: Adnectin
B16: 96 (protein)
chain: MGVSDVPRDLEVVAATPTSLLISWDAPAVTVQSYHIQYWPLGSYQRYQVFSVPGSKSTATISGLKPGVEYQIRVYAETGGADSDQSMGWIQIGYRTEGDKPSQHHHHHH
modifications: Adnectin
B17: 97 (protein)
chain: MGVSDVPRDLEVVAATPTSLLISWDAPAVTVHSYHIQYWPLGWYQRYQVFSVPGSKSTATISGLKPGVEYQIRVYAETRSGLADESFGWIQIGYRTEGDKPSQHHHHHH
modifications: Adnectin
B18: 98 (protein)
chain: MGVSDVPRDLEVVAATPTSLLISWDAPAVTVHSYHIQYWPLGSYQRYQVFSVPGSKSTATISGLKPGVEYQIRVYAETGGADSDQSMGWIQIGYRTEGDKPSQHHHHHH
modifications: Adnectin
B19: 103 (protein)
chain: MASTSGYTSYPIPYDLEVVAATPTSLYIHWYWIAATIISFRITYGETGGNSPVQEFTVPAGQDHATISGLKPGVDYTITVYAVHYEEEYSEFWTGHPISINYRTEGSGSHHHHHH
modifications: Adnectin
B20: 102 (protein)
chain: MASTSGSSPYLMPYDLEVVAATPTSLFIRWYGSASSIVKFRITYGETGGNSPVQEFTVGGTQLHATISGLKPGVDYTITVYAVHFEHKYSELWIGHPISINYRTEGSGSHHHHHH
modifications: Adnectin
B21: 139 (protein)
chain: MGVSDVPRDLEVVAATPTSLLISWEDPEAAVRYYRITYGETGGNSPVQEFTVPINDLHSYLSGLKPGVDYTITVYAVTEATVMYVLDEPISINYRTEIDKPSQHHHHHH
modifications: Adnectin
B22: 364 (protein)
chain: MGHHHHHHGGSVSDVPRDLEVVAATPTSLLISWEYKVHPYRYYRITYGETGGNSPVQEFTVPSVLSTATISGLKPGVDYTITVYAVTYGDPSAPISINYRTEID
modifications: Adnectin
B23: 367 (protein)
chain: MGHHHHHHGGSVSDVPRDLEVVAATPTSLLISWEYKVHPYRYYRITYGETGGNSPVQEFTVPSVLSSAQLSGLKPGVDYTITVYAVTYGDDSAPISINYRTEID
modifications: Adnectin
B24: 368 (protein)
chain: MGHHHHHHGGSVSDVPRDLEVVAATPTSLLISWEYKVHPYRYYRITYGETGGNSPVQEFTVPSVLSTATISGLKPGVDYTITVYAVTYGTDSAPISINYRTEID
modifications: Adnectin
B25: 369 (protein)
chain: MGHHHHHHGGSVSDVPRDLEVVAATPTSLLISWEYKVHPYRYYRITYGETGGNSPVQEFTVPSVLSTATISGLKPGVDYTITVYAVTYGDPSAPISINYRTEID
modifications: Adnectin
B26: 365 (protein)
chain: MGHHHHHHGGSVSDVPRDLEVVAATPTSLLISWEYKVSGYRYYRITYGETGGNSPVQEFTVPSVLSTATISGLKPGVDYTITVYAVTYGDDSAPISINYRTEID
modifications: Adnectin
B27: 370 (protein)
chain: MGHHHHHHGGSVSDVPRDLEVVAATPTSLLISWEYKVHPYRYYRITYGETGGNSPVQEFTVPSVLSTATISGLKPGVDYTITVYAVTYGDDSKPISINYRTEID
modifications: Adnectin
B28: 371 (protein)
chain: MGHHHHHHGGSVSDVPRDLEVVAATPTSLLISWEYKVHPYRYYRITYGETGGNSPVQEFTVPSVLSTATISGLKPGVDYTITVYAVTYGIDSTPISINYRTEID
modifications: Adnectin
B29: 366 (protein)
chain: MGHHHHHHGGSVSDVPRDLEVVAATPTSLLISWEYKVYHNRYYRITYGETGGNSPVQEFTVPSVLSTATISGLKPGVDYTITVYAVTYGDDSAPISINYRTEID
modifications: Adnectin
B30: 140 (protein)
chain: MGVSDVPRDLEVVAATPTSLLISWDLLEDMSRYYRITYGETGGNSPVQEFTVPTDAYTATISGLKPGVDYTITVYAVTQDSHVIELSYPISINYRTEIDKPSQHHHHHH
modifications: Adnectin

These molecules were tested on NL-Rluc virus (assay: Combinectin potency assay: antiviral EC50, NL-Rluc virus in MT-2 cells, luciferase readout). Conditions: Anti-CD4 Adnectin, Table 2.
Assay type: cell-based, HIV-1
Description: MT-2 cells, HEK 293T cells and the proviral DNA clone of […] were obtained from the NIH AIDS Research and Reference Reagent Program. MT-2 cells were propagated in RPMI 1640 medium supplemented with 10% heat-inactivated fetal bovine serum (FBS), 10 mM HEPES buffer pH 7.55, and 2 mM L-glutamine. HEK 293T cells were propagated in DMEM media supplemented with 10% heat-inactivated FBS, 10 mM HEPES buffer pH 7.55 and 2 mM L-glutamine. Recombinant NL-Rluc virus, in which a section of the nef gene from the proviral clone of NL4-3 was replaced with the Renilla luciferase gene, was constructed at Bristol-Myers Squibb. The replication-competent virus was harvested 3 days after transfection of HEK 293T cells with the modified pNL-Rluc proviral clone. Transfections were performed using Lipofectamine Plus (Invitrogen, Carlsbad, Calif.), according to manufacturer's instruction. Virus was titered in MT-2 cells using luciferase enzyme activity as a biomarker. The NL-Rluc virus used to infect MT-2 cells a multiplicity of 0.01 for 1 hour before adding to the peptides in 96-well plates. Peptides were serially diluted three-fold and 11 concentrations were plated in triplicate. After 4-5 days of incubation, cells were processed and quantitated for virus growth by the amount of expressed luciferase. Luciferase was quantitated using the Dual Luciferase kit from Promega (Madison, Wis.), with modifications to the manufacturer's protocol. The diluted Passive Lysis solution was pre-mixed with the re-suspended Luciferase Assay Reagent and then re-suspended in STOP & GLO® Substrate (2:1:1 ratio). A total of […] of the mixture was added to each aspirated well on assay plates and luciferase activity was measured immediately on a Wallac TriLux (Perkin-Elmer, Waltham, Mass.). The 50% effective concentration (EC50) was calculated by comparing the amount of luciferase produced in the presence of inhibitory peptide compared to wells where no peptide was added.

Q: With B1 as the molecule, how does the EC50 read?
A: 2400 nM

Q: For B2, which EC50 is on record?
A: > 400 nM

Q: Which EC50 does the source give for B3 here?
A: 500 nM

Q: For B4, which EC50 is on record?
A: 8.5 nM

Q: B5 was tested. Which EC50 did it give?
A: 28.6 nM

Q: With B6 as the molecule, how does the EC50 read?
A: 12.6 nM

Q: B7 was tested. Which EC50 did it give?
A: 18.4 nM

Q: For B8, which EC50 is on record?
A: 15.4 nM

Q: B9 was tested. Which EC50 did it give?
A: 20 nM

Q: For B10, which EC50 is on record?
A: 48 nM

Q: B11 was tested. Which EC50 did it give?
A: 170 nM

Q: How did the EC50 turn out when B12 was run?
A: 6 nM

Q: With B13 as the molecule, how does the EC50 read?
A: 320 nM

Q: B14 was tested. Which EC50 did it give?
A: 300 nM

Q: With B15 as the molecule, how does the EC50 read?
A: 500 nM

Q: B16 was tested. Which EC50 did it give?
A: 7.8 nM

Q: With B17 as the molecule, how does the EC50 read?
A: 11 nM

Q: B18 was tested. Which EC50 did it give?
A: 4.9 nM

Q: With B19 as the molecule, how does the EC50 read?
A: 255 nM

Q: For B20, which EC50 is on record?
A: > 5500 nM

Same assay, conditions: Anti-N17 Adnectin, Table 3

Q: For B21, which EC50 is on record?
A: 130 nM

Q: Which EC50 does the source give for B22 here?
A: 89 nM

Q: For B23, which EC50 is on record?
A: 300 nM

Q: For B24, which EC50 is on record?
A: 62 nM

Q: For B25, which EC50 is on record?
A: 155 nM

Q: Which EC50 does the source give for B26 here?
A: > 1000 nM

Q: With B27 as the molecule, how does the EC50 read?
A: 335 nM

Q: B28 was tested. Which EC50 did it give?
A: 114 nM

Q: For B29, which EC50 is on record?
A: > 1000 nM

Q: For B30, which EC50 is on record?
A: 950 nM
